According to patent publication US20240132599A1:
Several values for one entry are separate records, joined by “and”; a condition that tells them apart may be missing. Identical values can stand only once.

Target: Vδ1 TCR on human Vδ1-positive γδ T cells (human), A0A1B0
Test: cell-based or functional assay

Vδ1 TCR on human Vδ1-positive γδ T cells (human), A0A1B0, sequence (A0A1B0 entry or part of it mutant limits assumed): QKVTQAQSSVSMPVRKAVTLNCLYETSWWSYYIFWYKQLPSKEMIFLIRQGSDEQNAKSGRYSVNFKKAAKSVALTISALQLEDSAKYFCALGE

Row | Binder | IC50 TCR downregulation (soluble assay, added in solution) | IC50 TCR DR (no THP-1) | IC90 TCR DR (noTHP-1)
1 | ADT1-4 (parental) (antibody, IgG1, V domains shown) VH: QVQLQQSGPGLVKPSQTLSLTCAISGDSVSSKSAAWNWIRQSPSRGLEWLGRTYYRSKWSTDYAASVKSRITINPDTSKNQLSLQLNSVTPEDTAVYYCARTWSGYVDVWGQGTLVTVSS VL: ASDIQMTQSPPALSASVGDRVTITCRASQDINDWLAWYQHKPGKAPKLLIYDASSLESGVPSRFSGSGSGTEFTLTISSLQPDDFATYYCQQSYSTPQVTFGQGTRLEIK | 38.3 nM | – | –
2 | ADT1-4-31 (antibody, IgG1, V domains shown) VH: EVQLQQSGPGLVKPSQTLSLTCAISGDSVSSKSAAWNWIRQSPSRGLEWLGRTYYRSKWSTDYAASVKSRITINPDTSKNQLSLQLNSVTPEDTAVYYCARTWVGYADVWGQGTLVTVSS VL: DIQMTQSPPALSASVGDRVTITCRASQDINDWLAWYQHKPGKAPKLLIYDASSLESGVPLRFSGSGSGTEFTLTISSLQPDDFATYYCQQRYSTPPVTFGQGTRLEIK | – | 0.24 nM and 0.245 nM | 1.1 nM and 1.09 nM
3 | ADT1-4-53 (antibody, IgG1, V domains shown) VH: EVQLQQSGPGLVKPSQTLSLTCAISGDSVSSKSVAWNWIRQSPSRGLEWLGRTYYRSKWSTDYAASVKSRITINPDTSKNQLSLQLNSVTPEDTAVYYCARTWADYVDVWGQGTLVTVSS VL: DIQMTQSPPALSASVGDRVTITCRASQDINDWLAWYQHKPGKAPKLLIYDASSLESGVPLRFSGSGSGTEFTLTISSLQPDDFATYYCQQKYSTPQLTFGQGTRLEIK | – | 0.25 nM and 0.254 nM | 0.7 nM and 0.698 nM
4 | ADT1-4-2 (antibody, IgG1, V domains shown) VH: EVQLQQSGPGLVKPSQTLSLTCAISGDSVSSKSAAWNWIRQSPSRGLEWLGRTYYRSKWSTDYAASVKSRITINPDTSKNQLSLQLNSVTPEDTAVYYCARTWVGYVDRWGQGTLVTVSS VL: DIQMTQSPPALSASVGDRVTITCRASQDINDWLAWYQHKPGKAPKLLIYDASSLESGVPLRFSGSGSGTEFTLTISSLQPDDFATYYCQQKYSAPQVTFGQGTRLEIK | – | 0.31 nM | 0.83 nM and 0.834 nM
5 | ADT1-4-19 (antibody, IgG1, V domains shown) VH: EVQLQQSGPGLVKPSQTLSLTCAISGDSVSSKSAAWNWIRQSPSRGLEWLGRTYYRSKWSTDYAASVKSRITINPDTSKNQLSLQLNSVTPEDTAVYYCARTWVGYVDRWGQGTLVTVSS VL: DIQMTQSPPALSASVGDRVTITCRASQDINDWLAWYQHKPGKAPKLLIYDASSLESGVPLRFSGSGSGTEFTLTISSLQPDDFATYYCQQKYSTPKVTFGQGTRLEIK | – | 0.37 nM and 0.367 nM | 1.6 nM and 1.58 nM
6 | ADT1-4-86 (antibody, IgG1, V domains shown) VH: EVQLQQSGPGLVKPSQTLSLTCAISGDSVSSKSVAWNWIRQSPSRGLEWLGRTYYRSKWSTDYAASVKSRITINPDTSKNQLSLQLNSVTPEDTAVYYCARTWLGNVDVWGQGTLVTVSS VL: DIQMTQSPPALSASVGDRVTITCRASQDINDWLAWYQHKPGKAPKLLIYDASSLESGVPLRFSGSGSGTEFTLTISSLQPDDFATYYCQQKYSEPQVTFGQGTRLEIK | – | 0.31 nM and 0.307 nM | 1 nM
7 | ADT1-4-112 (antibody, IgG1, V domains shown) VH: EVQLQQSGPGLVKPSQTLSLTCAISGDSVSSKSAAWNWIRQSPSRGLEWLGRTYYRSKWSTDYAASVKSRITINPDTSKNQLSLQLNSVTPEDTAVYYCARTWVGYVDYWGQGTLVTVSS VL: DIQMTQSPPALSASVGDRVTITCRASQDINDWLAWYQHKPGKAPKLLIYDASSLESGVPLRFSGSGSGTEFTLTISSLQPDDFATYYCQQKYSQPQVTFGQGTRLEIK | – | 0.3 nM and 0.295 nM | 1.1 nM and 1.09 nM
8 | ADT1-4-143 (antibody, IgG1, V domains shown) VH: EVQLLQSGPGLVKPSQTLSLTCAISGDSVSSKSAAWNWIRQSPSRGLEWLGRTYYRSKWSTDYAASVKSRITINPDTSKNQLSLQLNSVTPEDTAVYYCARTWVGYADVWGQGTLVTVSS VL: DIQMTQSPPALSASVGDRVTITCRASQDINDWLAWYQHKPGKAPKLLIYDASSLESGVPLRFSGSGSGTEFTLTISSLQPDDFATYYCQQRYSTHQVTFGQGTRLVIK | – | 0.31 nM and 0.313 nM | 0.85 nM and 0.853 nM
9 | ADT1-4-1 (antibody, IgG1, V domains shown) VH: EVQLQQSGPGLVKPSQTLSLTCAISGDSVSSKSAAWNWIRQSPSRGLEWLGRTYYRSKWSTDYAASVKSRITINPDTSKNQLSLQLNSVTPEDTAVYYCARTWVGYADVWGQGTLVTVSS VL: DIQMTQSPPALSASVGDRVTITCRASQDINDWLAWYQHKPGKAPKLLIYDASSLESGVPLRFSGSGSGTEFTLTISSLQPDDFATYYCQQRYSTPIVTFGQGTRLEIK | – | 0.36 nM | 0.67 nM
10 | ADT1-4-6 (antibody, IgG1, V domains shown) VH: EVQLQQSGPGLVKPSQTLSLTCAISGDSVSSKSAAWNWIRQSPSRGLEWLGRTYYRSKWSTDYAASVKSRITINPDTSKNQLSLQLNSVTPEDTAVYYCARTWAGYPDVWGQGTLVTVSS VL: DIQMTQSPPALSASVGDRVTITCRASQDINDWLAWYQHKPGKAPKLLIYDASSLESGVPLRFSGSGSGTEFTLTISSLQPDDFATYYCQQKYKTPQVTFGQGTRLEIK | – | 0.48 nM | 1.9 nM and 1.91 nM
11 | ADT1-4-138 (antibody, IgG1, V domains shown) VH: EVQLQQSGPGLVKPSQTLSLTCAISGDSVSSKSAAWNWIRQSPSRGLEWLGRTYYRSKWSTDYAASVKSRITINPDTSKNQLSLQLNSVTPEDTAVYYCARTWADYVDVWGQGTLVTVSS VL: DIQMTQSPPALSASVGDRVTITCRASQDINDWLAWYQHKPGKAPKLLIYDASSLESGVPSRFSGSGSGTEFTLTISSLQPDDFATYYCQQRYSTDQVTFGQGTRLEIK | – | 8.4 nM and 8.38 nM | 38 nM and 38.3 nM
12 | ADT1-7-20 (antibody, IgG1, V domains shown) VH: EVQLVESGGGLVKPGGSLRLSCAASGFTFSDYYMSWIRQAPGKGLEWVSYISSSGSTIYYADSVKGRFTISRDNAKNSLYLQMNSLRAEDTAVYYCARVDYQEAFDIWGQGTLVTVSS VL: DIQMTQSPSSLSASVGDRVTIACRAGQSIGTYLNWYQQKPGKAPKLLIYVASSLQSGVPSRFSGSGSGTEFTLTISSLQPEDFATYYCQQSYSGLDTFGRGTKVEIK | – | 0.16 nM and 0.164 nM | 1 nM and 1.04 nM
13 | ADT1-7-3 (antibody, IgG1, V domains shown) VH: EVQLVESGGGLVKPGGSLRLSCAASGFTFSDYYMSWIRQAPGKGLEWVSYISSSGSTIYYADSVKGRFTISRDNAKNSLYLQMNSLRAEDTAVYYCARVSYAEAFDIWGQGTLVTVSS VL: DIQMTQSPSSLSASVGDRVTIACRAGQSIGTYLNWYQQKPGKAPKLLIYVASSLQSGVPSRFSGSGSGTEFTLTISSLQPEDFATYYCQQSYSGLDTFGRGTKVEIK | – | 0.16 nM and 0.161 nM | 0.79 nM
14 | ADT1-7-61 (antibody, IgG1, V domains shown) VH: EVQLVESGGGLVKPGGSLRLSCAASGFTFSDYYMSWIRQAPGKGLEWVSYISSSGSTIYYADSVKGRFTISRDNAKNSLYLQMNSLRAEDTAVYYCARDDYDDAFDIWGQGTLVTVSS VL: DIQMTQSPSSLSASVGDRVTIACRAGQSIGTYLNWYQQKPGKAPKLLIYVASSLQSGVPSRFSGSGSGTEFTLTISSLQPEDFATYYCQQSASELLTFGRGTKVEIK | – | 6.3 nM and 6.26 nM | 1700 nM
15 | ADT1-4-21 (antibody, IgG1, V domains shown) VH: EVQLQQSGPGLVKPSQTLSLTCAISGDSVSSKSVAWNWIRQSPSRGLEWLGRTYYRSKWSTDYAASVKSRITINPDTSKNQLSLQLNSVTPEDTAVYYCARTWADYVDVWGQGTLVTVSS VL: DIQMTQSPPALSASVGDRVTITCRASQDINDWLAWYQHKPGKAPKLLIYDASSLESGVPLRFSGSGSGTEFTLTISSLQPDDFATYYCQQKYSTPWVTFGQGTRLEIK | – | 0.27 nM and 0.266 nM | 0.89 nM and 0.892 nM

Target: Vδ1 TCR on human Vδ1-positive γδ T cells (human), A0A1B0
Test: not given

Row | Binder | Vδ1 TCR down-regulation (A375 co-culture): % change (at saturation) | Vδ1 TCR down-regulation (A375 co-culture): EC50 | Vδ1 TCR down-regulation (A375 co-culture): EC95
16 | ADT1-4-6/ADT3-2 (bispecific antibody) heavy: EVQLQQSGPGLVKPSQTLSLTCAISGDSVSSKSAAWNWIRQSPSRGLEWLGRTYYRSKWSTDYAASVKSRITINPDTSKNQLSLQLNSVTPEDTAVYYCARTWAGYPDVWGQGTLVTVSSASTKGPSVFPLAPSSKSTSGGTAALGCLVKDYFPEPVTVSWNSGALTSGVHTFPAVLQSSGLYSLSSVVTVPSSSLGTQTYICNVNHKPSNTKVDKKVEPKSCDKTHTCPPCPAPELAGAPSVFLFPPKPKDTLMISRTPEVTCVVVDVSHEDPEVKFNWYVDGVEVHNAKTKPREEQYNSTYRVVSVLTVLHQDWLNGKEYKCKVSNKALPAPIEKTISKAKGQPREPQVYTLPPSRDELEEGPVSLTCLVKGFYPSDIAVEWESTYGPENNYKTTPPVLDSDGSFFLYSKLTVSYWRWYKGNVFSCSVMHEALHNHYTQKSLSLSPG VL: DIQMTQSPPALSASVGDRVTITCRASQDINDWLAWYQHKPGKAPKLLIYDASSLESGVPLRFSGSGSGTEFTLTISSLQPDDFATYYCQQKYKTPQVTFGQGTRLEIK | 81.9% | 0.00606 nM | 0.0836 nM
17 | ADT1-4-138/ADT3-2 (bispecific antibody) heavy: EVQLQQSGPGLVKPSQTLSLTCAISGDSVSSKSAAWNWIRQSPSRGLEWLGRTYYRSKWSTDYAASVKSRITINPDTSKNQLSLQLNSVTPEDTAVYYCARTWADYVDVWGQGTLVTVSSASTKGPSVFPLAPSSKSTSGGTAALGCLVKDYFPEPVTVSWNSGALTSGVHTFPAVLQSSGLYSLSSVVTVPSSSLGTQTYICNVNHKPSNTKVDKKVEPKSCDKTHTCPPCPAPELAGAPSVFLFPPKPKDTLMISRTPEVTCVVVDVSHEDPEVKFNWYVDGVEVHNAKTKPREEQYNSTYRVVSVLTVLHQDWLNGKEYKCKVSNKALPAPIEKTISKAKGQPREPQVYTLPPSRDELEEGPVSLTCLVKGFYPSDIAVEWESTYGPENNYKTTPPVLDSDGSFFLYSKLTVSYWRWYKGNVFSCSVMHEALHNHYTQKSLSLSPG VL: DIQMTQSPPALSASVGDRVTITCRASQDINDWLAWYQHKPGKAPKLLIYDASSLESGVPSRFSGSGSGTEFTLTISSLQPDDFATYYCQQRYSTDQVTFGQGTRLEIK | 75.3% | 0.00798 nM | 0.496 nM
